Values of other authors as cited in article PMC7417478.

Columns and labels:
[1] = molecular target: FGFR1 (Homo sapiens) (UniProt P11362)
[2] = molecular target: FGFR2 (Homo sapiens) (UniProt P21802)
Chain of UniProt P21802 (P21802 22-377): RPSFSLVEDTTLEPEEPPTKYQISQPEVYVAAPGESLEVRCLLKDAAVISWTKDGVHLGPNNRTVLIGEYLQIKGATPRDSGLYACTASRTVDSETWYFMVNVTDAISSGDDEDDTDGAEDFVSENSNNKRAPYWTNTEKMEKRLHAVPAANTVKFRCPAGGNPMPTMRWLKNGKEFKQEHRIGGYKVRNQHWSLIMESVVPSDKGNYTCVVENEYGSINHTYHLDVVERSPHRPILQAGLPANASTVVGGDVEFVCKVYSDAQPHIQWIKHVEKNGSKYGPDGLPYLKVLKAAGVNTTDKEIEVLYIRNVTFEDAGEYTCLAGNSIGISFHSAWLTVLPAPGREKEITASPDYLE

Chain of UniProt P11362 (P11362 22-376): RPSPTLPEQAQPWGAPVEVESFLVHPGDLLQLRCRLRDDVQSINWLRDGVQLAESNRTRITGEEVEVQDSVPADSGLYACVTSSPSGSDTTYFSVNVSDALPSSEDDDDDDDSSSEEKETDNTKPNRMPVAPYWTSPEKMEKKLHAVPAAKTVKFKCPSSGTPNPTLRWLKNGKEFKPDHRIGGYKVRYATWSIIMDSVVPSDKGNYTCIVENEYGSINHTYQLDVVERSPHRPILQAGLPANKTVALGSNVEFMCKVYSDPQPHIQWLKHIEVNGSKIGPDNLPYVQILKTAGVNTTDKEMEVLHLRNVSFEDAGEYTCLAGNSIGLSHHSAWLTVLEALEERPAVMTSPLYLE

FGF5 (from UniProt P12034)
Kd [1]: 1 nM
Kd [2]: 1 nM
